# Where a chain is given by its changes, count along the chain named.
# T1: Human LY6K (R&D Systems) (human, UniProt Q17RY6 18-138, limits assumed)
# T1 construct: Bought from R&D Systems, coated on ELISA plates; also called hLY6K
# T1 sequence: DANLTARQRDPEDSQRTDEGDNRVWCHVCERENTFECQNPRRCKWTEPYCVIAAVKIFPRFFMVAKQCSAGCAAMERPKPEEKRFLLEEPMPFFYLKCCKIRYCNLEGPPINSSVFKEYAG
# T2: human LY6E (R&D Systems) (human, UniProt Q16553 21-101, limits assumed)
# T2 construct: also called hLY6E
# T2 sequence (looked up): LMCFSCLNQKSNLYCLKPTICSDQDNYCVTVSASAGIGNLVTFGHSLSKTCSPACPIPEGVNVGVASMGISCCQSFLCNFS
# T3: hLY6K-his (human, UniProt Q17RY6 18-138, limits assumed)
# T3 construct: not shown: his tag
# T3 sequence: T1 sequence
# T4: hLY6K-mFc (human, UniProt Q17RY6 18-138)
# T4 construct: not shown: mFc
# T4 sequence: T1 sequence
# T5: Ly6D
# T5 chain: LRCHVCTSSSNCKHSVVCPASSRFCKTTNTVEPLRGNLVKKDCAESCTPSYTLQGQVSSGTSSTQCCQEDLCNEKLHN
# T6: Ly6H
# T6 chain: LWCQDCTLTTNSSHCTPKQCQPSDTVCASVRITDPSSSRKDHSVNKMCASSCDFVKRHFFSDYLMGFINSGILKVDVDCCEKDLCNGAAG
# B1: anti-LY6K antibody 3785 (antibody, V domains shown)
# VH: QVQLQQSGPGLVKPSQTLSLTCAISGDSVSSNSAAWNWIRQSPSRGLEWLGRTYFRSKWNNDYTLSVKNRITINPDTSKNHFSLQLNSVTPEDTAVYYCAGGGYCNRTYCPDVFDIWGQGTMVTVSS
# VL: DIQMTQSPSSLSASVGDRVTFTCRSSQSISSYLNWYQQKPGKAPNLLIYVASTLQSGVPSRFSGSGSGTDFTLTISSLQPEDFATYYCQQSYSIPLTFGGGTKVEIK
# B2: anti-LY6K antibody 3728 (antibody, V domains shown)
# VH: EVQLVESGGGLVKPGGSLRLSCAASGFTFSDVWMSWVRQAPGKGLEWVGRIKSKTDGGRIDYAAPVKGRFTISRDDSKNTLYLQMNSLKTEDTAVYYCTTVPYSDYWGQGTLVTVSS
# VL: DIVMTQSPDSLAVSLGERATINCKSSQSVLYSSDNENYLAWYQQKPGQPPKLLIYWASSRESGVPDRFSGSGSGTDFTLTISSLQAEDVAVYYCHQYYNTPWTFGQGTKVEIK
# B3: anti-LY6K antibody 3055 (antibody, V domains shown)
# VH: EVQLVESGGGLVQPGRSLRLSCAASGFTFDDFAMHWVRQAPGKGLEWVSGISWNTGTIGYADSVKGRFTISRDNAKNSLYLQMNSLRAEDTALYYCAKDKGTTGFDYWGQGTLVTVSS
# VL: DIQMTQSPSSVSASVGDRVTITCRASQGISRWLVWYQQKPGKAPKLLIYAASSLQSGVPSRFSGSGSGTDFTLTISSLQPEDFATYYCQQANSFPRTFGQGTRLEIK
# B4: anti-LY6K antibody 3096 (antibody, V domains shown)
# VH: QVQLVQSGAEVKKPGASVRVSCKASGYTFTGYYIHWVRQAPGQGLEWMGWINPNSGGTNYAQKFQDRVTMTRDTSISTVYMELSRLRSDDTAVFFCAREASNFWGQGTLVTVSS
# VL: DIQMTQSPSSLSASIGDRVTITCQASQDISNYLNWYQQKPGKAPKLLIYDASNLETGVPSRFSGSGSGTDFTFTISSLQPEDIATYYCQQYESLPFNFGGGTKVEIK
# B5: anti-LY6K antibody 3102 (antibody, V domains shown)
# VH: QVQLVQSGAEVKKPGASVKVSCKASGYTFTGYYIHWMRQAPGQGLEWMGWINPNSGGTNYAQNFQGRVTMTRDTSINTAYMELSRLKSDDTAVYYCAKESGSPWGQGTLVTVSS
# VL: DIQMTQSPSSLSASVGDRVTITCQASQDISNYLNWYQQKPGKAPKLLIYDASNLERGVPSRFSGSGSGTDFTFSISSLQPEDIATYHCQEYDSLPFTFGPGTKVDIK
# B6: anti-LY6K antibody 3527 (antibody, V domains shown)
# VH: EVQLVESGGGLVKPGGSLRLSCAASGFTFSSYSMNWVRQAPGKGLEWVSSISSTSSYIYYADSVKGRFTISRDNAKNSLYLQMNSLRAEDTAVYYCARSDYYDSGSYKNYYYYYMDVWGKGTTVTVSS
# VL: B1 VL with F21I, S25T, Y36F, N45K, L46V, V50A, T53S, S56R, I94T
# B7: anti-LY6K antibody 3553 (antibody, V domains shown)
# VH: QVQLVQSGAEVKKPGASVKVSCKASGYTFTGYYMHWVRQAPGTGLDWMGWISPNSGGTNYAQKFQGRVTMTRDTSISTVYMELSRLRSDDTALYYCAREVGNYWGQGTLVTVSS
# VL: DIQMTQSPTSLSTSVGDRVTITCQASQDIYNYLNWYQLKPGKAPKLLIYDASNLERGVTSRFSGSGSGTDFTFTISSLQPEDIATYYCQQYDSLPITFGQGTRLEIK
# B8: anti-LY6K antibody 3743 (antibody, V domains shown)
# VH: EVQLVESGGGLVHPGRSLRLSCAASGFTFDDYAMHWVRQAPGKGLEWVSGISWKSGRIDYADSVKGRFTISRDNAKNSLYLQMNSLRAEDTALYYCAKDRRELTFDIWGQGTMVTVSS
# VL: DIVMTQTPLSSPVTLGQPASISCRSSQSLEHSNGNTYLSWLQQRPGQPPRLLIYKISNRFSGVPDRFSGSGAGTDFTLKISRVEAEDVGVYYCMQTTQFPLTFGGGTKVEIK
# B9: anti-LY6K antibody 3063 (antibody, V domains shown)
# VH: EVQLVESGGGLVKPGRSLRLSCAASGFTFDDFAMHWVRQAPGKGLEWVSGLSWKGHTLGYADSVKGRFTFSRDSAKNSLYLQMNSLRAEDTALYYCAKDTRSGLDYWGQGTLVTVSS
# VL: B8 VL with N33D, S70N, V90I, T96A, Q98E, L101F
# B10: anti-LY6K antibody 3719 (antibody, V domains shown)
# VH: EVQLVESGGGLVQPGRSLRLSCTASGFTFNDYAMHWVRQAPGKGLEWVSGISWNSNNIDYADSVKGRFTISRDNAKNSLYMQMNSLRAEDTALYYCAKDGPGTTNDAFDIWGQGTMVTVSS
# VL: B1 VL with F21I, S25A, Q27H, N45K, V50A, T53S, Q89H, S91G, I94T
# B11: anti-LY6K antibody 3501 (antibody, V domains shown)
# VH: EVQLVESGGGLVQPGRSLRLSCAASGFTFDDYAMHWVRQAPGKGLEWVSGISWNSGTIDYADSVKGRFTISRDNAKNSLYLQVNSLRAEDTALYYCAKDSPQKDYYYMDVWGKGTTVTVSS
# VL: B1 VL with F21I, S25T, V50A, T53S, S93I, I94T, L96I, G100Q, K103R, V104L
# B12: anti-LY6K antibody 3514 (antibody, V domains shown)
# VH: QVQLVQSGAEVKKPGASVKVSCKASGYTFTSYGISWVRQATGQGLEWMGWMNPNSGNTGYAQKFQGRVTMTRNTSISTAYMELSSLRSEDTAVYYCRAAGYYYYYYYMDVWGKGTTVTVSS
# VL: not shown
# B13: anti-LY6K antibody 3518 (antibody, V domains shown)
# VH: EVQLVESGGGLVQPGGSLKLSCAASGFTFSGSAMNWVRQASGKGLEWVGRIRSKANSYATAYAASLKGRFTISRDDSKNTAYLQMNSLKTEDTAVYYCTVTPFDYWGQGTLVTVSS
# VL: DIQMTQSPSSLSASVGDRVTITCQASQDISNHLNWYQQKPGKAPKLLINDASNLETGVPSRFSGSGSGTDFTFTISSLQPEDIATYYCQQYDNVPYTFGQGTKLEIK
# B14: anti-LY6K antibody 2659 (antibody, V domains shown)
# VH: EVQLVESGGGLVQPGRSLRLSCAASGFTFDDYAMHWVRQAPGKGLEWVSGISWKSGIIGYADSVKGRFTISRDNAKNSLYLQMNSLRAEDTALYYCAKDSRTGLDYWGQGTLVTVSS
# VL: not shown
# notes: Has values only in SPR (CHO supernatant, captured by anti-human IgG-Fc)
# B15: anti-LY6K antibody 3056 (antibody, V domains shown)
# VH: EVQLVESGGGLVQPGRSLRLSCAASGFTYDDYAMHWVRQVPGKGLEWVSGITWKKSIIGYADSVRGRFTVSRDSAKNSLYLQMSSLRVEDTALCYCAKDSTDGLDYWGQGTLVTVSS
# VL: B8 VL with I21L, E30L, A85G, T96A, Q98E, L101Y, G105Q, V109L
# notes: as for B14
# Biological target: T1, Human LY6K (R&D Systems)
# Experiment: ELISA, coated antigen, IgG1 at 10 ug/ml
row,Binder,% of maximum of commercial anti-LY6K mAb on human LY6K [%]
1,B1,43.7
2,B2,96.4
3,B3,22.6
4,B4,35
5,B5,38.4
6,B6,54.6
7,B7,26

# Biological target: T7, cynomolgus monkey LY6K (R&D Systems) (cynomolgus monkey)
# T7 construct: also called cyLY6K
# Experiment: ELISA, coated antigen, IgG1 at 10 ug/ml
row,Binder,% of maximum of commercial anti-LY6K mAb on human LY6K [%]
1,B8,3.5
2,B1,57.2
3,B9,2.6
4,B10,0.8
5,B11,2
6,B2,110
7,B3,40.3
8,B4,37.2
9,B5,40.1
10,B12,2.6
11,B13,2.7
12,B6,58
13,B7,28.9

# Biological target: T8, rat LY6K (R&D Systems) (rat)
# T8 construct: also called rLY6K
# Experiment: ELISA, coated antigen, IgG1 at 10 ug/ml
row,Binder,% of maximum of commercial anti-LY6K mAb on human LY6K [%]
1,B8,2.6
2,B1,2.5
3,B9,-0.2
4,B10,-1.7
5,B11,0.4
6,B2,-1.3
7,B3,0.4
8,B4,0
9,B5,0.2
10,B12,0
11,B13,2.1
12,B6,1.1
13,B7,2.4

# Biological target: T2, human LY6E (R&D Systems)
# Experiment: ELISA, coated antigen, IgG1 at 10 ug/ml
row,Binder,% of maximum of commercial anti-LY6K mAb on human LY6K [%]
1,B8,5
2,B1,4.5
3,B9,4.2
4,B10,4.2
5,B11,4.3
6,B2,1
7,B4,1
8,B5,3.8
9,B12,2.9
10,B13,2.1
11,B6,4.6
12,B7,5

# Biological target: T3, hLY6K-his
# Experiment: SPR (Carterra LSA), mAb captured on anti-human IgG-Fc, antigen as analyte
row,Binder,Kd [nM]
1,B1,7.48
2,B2,4.96
3,B14,6.13
4,B15,0.472
5,B4,63.8

# Biological target: T4, hLY6K-mFc
# Experiment: as above
row,Binder,Kd [nM]
1,B1,0.263
2,B2,0.00734
3,B14,0.034
4,B15,0.0233
5,B4,1.36

# Biological target: cyLY6K-mFc (cynomolgus monkey)
# Experiment: as above
row,Binder,Kd [nM]
1,B1,1.39
2,B2,0.0786
3,B4,9.49

# Biological target: T5, Ly6D
# Experiment: ELISA, antigen coated on the plate, antibody as human IgG1, anti-human F(ab)2 HRPO
row,Binder,binding result
1,B1,no binding (tested: 10 µg/ml)
2,B9,no binding (tested: 10 µg/ml)
3,B10,no binding (tested: 10 µg/ml)
4,B11,no binding (tested: 10 µg/ml)

# Biological target: T6, Ly6H
# Experiment: as above
row,Binder,binding result
1,B1,no binding (tested: 10 µg/ml)
2,B9,no binding (tested: 10 µg/ml)
3,B10,no binding (tested: 10 µg/ml)
4,B11,no binding (tested: 10 µg/ml)

# Biological target: T2, human LY6E (R&D Systems)
# Experiment: as above
row,Binder,binding result
1,B1,no binding (tested: 10 µg/ml)
2,B9,no binding (tested: 10 µg/ml)
3,B10,no binding (tested: 10 µg/ml)
4,B11,no binding (tested: 10 µg/ml)
